The target of this assay is recombinant human MXRA8-Fc fusion protein (UniProt Q9BRK3). Particulars: 37 °C; n = 2; parent: est. 19; read off a plot.

Usually Kd stands for a measure of binding affinity in units of concentration. With “Ross River virus T48, CPER-recovered wild type, purified virus (E1/E2 envelope glycoproteins on the virion) E2:H64W”, the equilibrium dissociation constant (Kd) stood at 66 nM.

The record behind these values is publication PMC8187723.
